Experimental data: the nanobody polyreactivity screen of Harvey et al. (2022)

Assay: yeast display, Sf9 membrane polyspecificity reagent, FACS + sequencing; frameworks hold sequencing errors
Method in brief: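 Genes from sorted yeast were amplified by colony PCR, read by MiSeq 2 × 250 sequencing and filtered on CDR length. These cells carried a synthetic nanobody library in Saccharomyces cerevisiae BJ5465 and were sorted by FACS into low and high (top ~1%) gates on anti-HA and streptavidin fluorescence. Polyreactivity is labelled according to the gate of origin.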

Sequence	polyreactivity (PSR sort gate)
QVQLLESGGGLVQAGGSLRLSCAASGRTLDRNAMGWYRQAPGKERELVAAISRRTGSTYYADSVKGRFTISRDNAKNTVYLQMNSLKPEDTAVYYCNKVTYGDFDYWGQGTQVTVSS	high polyreactivity
QVQLQESGGGLVKAGGSLRLSCAASGNISPRDAMGWYRQAPGEERDLVASNAYSAITYYADGVKGRYSISRDNAKNTVYLQMNSLKPEDTEVYYCAVYQFTYPVFPAYWGQGTQVSVSS	low polyreactivity
QVQLVESGGGLVQAGGSLRLSCAASGSSFPVNGIGWYRQAPGKERELVAVITDSDGSTYYADSVKGRFTISRDNAKNTVYLQMNSLKPEDTAVYYCAADDYAYSYGYWLTYDYWGQGTQVTVSS	low polyreactivity
QVQLVESGGGIVQAGGSLRLSCAASGLILYWYAMGLYRQAPGKERYLVAAISISGGSTYYADSVKGRFTISRDNAKNTVYLQMNSLKPEDTAVYYCAAVYFYSWEGDGDYWGQGTQVTVSS	low polyreactivity
QVQLVESGGGLVQAGGSLRLSCAASGSIFYWNTMGWYRQAPGKERELVAAIRRGGNTYYADSVKGRFTISRDNAKNTVYLQMNCLKPEDTAVYYCNRDGTYVYHGGEYWGQGTQVTVSS	low polyreactivity
QVQLVESGGGLVQAGGSLRLSCAASGRIFRRNAMGWYRPAPGKERELVAGITWSGGTTYYADSVKGRFTISRDNAKNTVYLQMNSLKPEDTAVYYCNAGRSKWLSRYDYWGQGTQVTVSS	high polyreactivity
QVQHEESGGGLDQAGGSLRLSSASSGTIFYGCYMGWYRQARGKEREMVATISWSSGSSTYYADSVKGRFTISRDNANNSVYLQMNILKPEDTAVYYCAVDFAIGYRYLCRVDYWGQGTQVTVSS	low polyreactivity
QVQLVESGGGLVQAGGSLRLSCAASGSTYWNAMGWYRQAPGKERELVAAITFRGGSTYADSVKGRFTISRDNAKNTVYLQMNSLKPEDTAVYYCAKASSHRWYNVRNRAGYDYWGQGTQVTVSS	high polyreactivity
QVQLVESGGGLVQAGGSLRLSCAPSGITFFWKAKGWYRQAPGKERELVAAISSGAGTTYADSVKGRFTISRDNAKNTVYLQMNSLKPEDTAVYFCAARRYRYAYGPYNYWGQGSQVTVSS	low polyreactivity
QVQLVESGGGLVQAGGSLRLSCAASGLTFSFYAMGWYIPAPGKDTERVAAISSGGGITYYADSVKGRFTISRDNAKNTVYLQMNSLKPEDTALYYCNTDDYYQYWVPSEYYYCGQGTQVTVSS	low polyreactivity
QVQLVESGGGLVQAGGSLRLSSAASGRIFPRYGMGWYRQAPGKERELVAAISIGGSTHYADSVKGRFTISRDNAKNTVYLQMNSLKPEDTAVYYCNKDIYVYWLFRLGMGYWGQGTQVTVSS	low polyreactivity
QVQLVESWGVLVQAGGSLRLSCAAYGSIFRLYAMGSYRTAPGTARELVAAITSGDSTNYADSVKGRFTISRDNAKNTVYLQMNSLKPEDTAVYYCNSGRISVRVTSEQYAYHEYYYWGQGTQVTVSS	high polyreactivity
QFQLAESGGGLVQAGGSLRLSCAASGFTFRDYAMGWSRQATGKERELVATISWRGGSTYYADSVKGRFTISRDNAKNTVYLQMNSLKPEDTAVYYCAKRPYQRSVPYGKYDYWGQGTQVTVSS	low polyreactivity
QVQLVESGGGLVQAGGSLRLSCAASGSTFAINAMGWYRQAPGKERELVAAITYSGGGTYYADSVKGRFTISRENAKNTVYLQMNSLKPEDTAVYYCYAYGRSWVFNYIGVFLYDYWGQGTQVTVSS	low polyreactivity
QVQLVESGGGLVQAGGSLRLSCAASGRIFYGYAMGWYRQAPGKERELVAAITRGVSTYYADSVKGRFTISRDNAKNTVYLQMNSLKPEDTAVYYCAKDRRVRMDSWGQGTQVTVSS	low polyreactivity
QVQLVESGGGLGQAGGSLRLSCAASGVSNAMGWYRQAPGKERELVAAISRSGGSTYYADSVKGRFTISRDNAKNTVYLQMNRLKPEDTAVYYCNARPYWIDGSGLFPYDYWGQGSQVTVSS	high polyreactivity
QVQLVESGGGLVQAGGSLRLSCAASGSTLFVNTKGWYRQAPGNERELVAAITSSGGSRYYADSVKGRFTISRDNAKNTVYLQMNSLKPQDTAVYYCAAKELGSPYDYWGQGTQVTVSS	high polyreactivity
QVQLVESGGGLVQAGGSLRLSCAASGRIFRWNAMGWYRQAPGKERELVAVISSGGSTNYADSVKGRFTISRDNAKNTVYLQMNSLKPEDTAVYYCAADEGYVWPYYGWGFGKYDYWGQGTQVTVSS	low polyreactivity
QVQLVESGGGLVQAGGSLRLSCAASGSTISGYAMGWYRQAPGKERELVATISRGGSTNYADSVKGRFTISRDNAKNTVYLQMNSLKPEDTAVYYCAAQTYVWWVKYHSWGQGTQVTVSS	low polyreactivity
QVQLVESGGGLVQAGGSLRLSCAASGFTFYWYTMGGYRQAPGKDRELVAAISGSGGRTYYADSVKGRFTISRDNAKKTVYLQMNSLKPEDTAVYYCAARGRYAYPRYGYYPVNYWGQVTQVTVSS	high polyreactivity
QVQLVESGGGLVQAGGSLRLSCAASGRIFGWYAMGCYIQAPGKERELVAAISSNGGSTYYADSVKGRFTISRDNAKNTVYLQMNSLKPEDTAVYYCAAVRVFQYKYDRFNYWGQGTQVTVSS	high polyreactivity
QVQLVESGGGLVQAGGSLRLSCAASGSIFNYNAMGWYRQAPGKERELVAAMSGSGGRTYYADSVKGRFTISRDNAKYTVYLQMNSLKPEDTAVYYCATYVRITPYEYWGQGTQVTVSS	high polyreactivity

Sequence	polyreactivity (PSR sort gate)
QVQLVESGGGLVQAGGSLRLSCAASGRTFIINGMGWYRQAPGKERELVAAITTSGGSTYYADSVKGRFTISRDNAKNTVYLQMNSLKPEDTAVYSCAADVFSRKYLYGDYDYWGQGTQVTVSS	high polyreactivity
QVQLVDSGGGLVQAGGSLRLSCAASGITFWDNVMGWYRQATGKERELVATITYRGGSTYADSVKGRFTISRDNAKITVFLQMNSVKPEDTAVYYCNTGVTVDILSYDSWGQGTQVTVSS	low polyreactivity
QVQLVDSGGGLVQAVGSLRLSCAASGRTFRRYAMGWYRQAPGKERELVAAISRSGGSTYYADSVNGRFTISRDNAKNTVYLQMNSLKPEDTAVYYCAAGIWSKLVEPFDYCGQGTQVTVSS	high polyreactivity
QVQLVESGGGLVQAGGSLRLSCAASGSTFTRNAMGWYRQAPGKERELVAVISSRGGRTYYADSVKGRFTISRDNAKNTVYLQMNSLKPEDTAVYYCAARTWVLYTWRSYYEYYYWGQGTQVTVSS	high polyreactivity
QVQLVESGGGLVQAGGSLRLSCAASGRIFGAYARGWYRQAPGKERELVAAITSAGSTHYADSVKGRFTISRDNAKNTVYLQMNSLKPEDTAVYYCAADGIARAYVLFDAYDFLYDYWGQGTQVSVSS	low polyreactivity
QDQLVESGGGLVQAGGSLRLSCAASGSIFGVNDMGWYRQGAGKERELVAGINQGGGSTYYADSVKGRFTISRDNAKNSVYLQMNSLKPEETAVYYCAAVRYVLRSPARYGYWGQGTQVTVSS	low polyreactivity
QVQRVDSRGGLVQAGGSLRLSCAASGRIFRPNAMGWYRQAHGKQRELVAAITSNGGRTYYADSVKGRFTISRDNAKYTVYLQMNSLKPEDTAVYYCNAAPFRSGDGYWGQGTQVTVSS	high polyreactivity
QVQLVESGGGLVQAGGSLRLSCAASGFIFHGYAMGWYRQAPGKERELVAAISGTGGSTYYADSVKGRFTISRDNAKNTVYLQMNSLKPEDTAVYYYKAERSGNGYWGQGTQVTVSS	high polyreactivity
QVQLQESGGGLVQAGGSLRLSCAASGTIFRISDMGSYRQAPGKELEFVAAITYGANTYYADSGKGRFTISRDNAKNTVYLQMNSLKPEDTAVYYCAVPPVKETILDYWGQGTQVTVSS	low polyreactivity
QVQLVESGGGLVQAGGSLRLSCAASGRTFPSYVMGWYRQAPGKERELVAAITATGASTYYADSVKGRFTISRDNAKNTVYLQMNSQKPEDTAVYYCAASRYGLYENGYEYYWGQVTQVTVSS	low polyreactivity
QVQLVESGGGLDQAGGSLRLSCAASGSIFQYYAMGWYRQAPGKEREFVAAITSDGSSTYYADSVKGRFTISRDNAKNTVYLQMNSLKPEDTAVYYCAAGWVGYRLPSMYYWGQGTQVTVSS	high polyreactivity
QVQLVESGGGLVQAGGSLRLSCAASGSIFKTNAMGWYRQAPGKERELVAGISNGGSTNYADSVKGRFTISRDNAKNTVYLQMNSLKPEDTAVYYCAKKGYASRYFIYDYWGQGTQVTVSS	low polyreactivity
QVQLVESGGGLVQAGGSLRLSFAASGSTFSRYAMGWYRQAPGKERELVAAISSGGGTNYADSVKGRFTISRDNAKNTVYLQMNSLKPEDTSVYYRAAVTVDFLKGYGWWFWQISDFWGQVTQVTVSS	low polyreactivity
QVQLVESGGGLVEAGGTLRLSCAASGSIFPINAMGWYRQAPGKQWELVAAITVSDGRTYYADSVKGRFTISRDTAKNTVYLQMNSLKPEDTAVYYCAKSSHAREYYYWGQGNQVTVSS	low polyreactivity
QVQLVESGGGLVQAGGSLRLSCAASGSTFRSYAMGWYRQAPGKERELVAVISKRGGSTYYADSVKGRFTISRDNAKNTVYLQMNSLKPEDTAVYYCAARPGPYWTVTFRSPKYYYWGQGTQVTVSS	high polyreactivity
QAQLVESGGGLVQAGGSLRLSCAASGRTSYRYVMGWYIQAPGKERELVAAISRGGRTYYADSVKGSFTISRDNAKYTVYLQMNSLNPEVTAVYYCNAAFGVYVATGDSFPRHKKFGFWGQGTQVTVSS	high polyreactivity
QVQLVESGGGLVQAGGSLRLSCAASGSTFRTNAMGWYRQAPGKERELVAAISGSGSRTYYADSVKGRFTISRDNAKNTVYLQMNSLKPEDTAVYYCAAVYGGVGYRRREYWGQGTQVTVSS	high polyreactivity
QVQLVESGGGLVQAGGSLRLSCAASGSTFGYNAMGWYRQAPGKERELVAAITRRGGITYYADSVKGRFTISRDNAKNTVYLQMNSLKPEDTAVYYCAKRLGYPGNSRNYYYWGQGTQVTVSS	high polyreactivity
QVQLVESGGGLVQAGGSLRLSCAASGRIFSRNAMGWYRQAPGKERELVAAISRSGTSTYYADSVKGRFTISRDNAKNTVYLQMNSLKPEDTAVYYCAAYPYYDRDYWGQGTQVTVSS	low polyreactivity
QVQLVESGGGLVQAGGSLRLSCAASGSIFDDYAMGWYRQAPGKERELVAAMSWSGGRTYYADSVKGRFTISRDYAKNTVYLQMNSLNPEDTAVYYCAATTGVRSRRYYYWGQGTLVTVSS	low polyreactivity
QVQLVESGGGLVQAGGSLRLSCAASGRIFYRYAMGWYRQAPGKERELVAAISTSGARTYYADSVKGRFTISRDNAKIYVYLQMNSLKPVDTAVYYCAATATVSKFGYWGQGTQVTVSS	low polyreactivity
